Source: PMC2926604 (Nucleic Acids Research, 2010)

T1: Rrp41 (archaeal exosome subunit);Rrp42 Y70A;Csl4 (exosome cap) (Archaeoglobus fulgidus (printed …, UniProt O29757;O29756;O30033 1-258;1-259;1-179, |Y70A|))
T1 sequence 1: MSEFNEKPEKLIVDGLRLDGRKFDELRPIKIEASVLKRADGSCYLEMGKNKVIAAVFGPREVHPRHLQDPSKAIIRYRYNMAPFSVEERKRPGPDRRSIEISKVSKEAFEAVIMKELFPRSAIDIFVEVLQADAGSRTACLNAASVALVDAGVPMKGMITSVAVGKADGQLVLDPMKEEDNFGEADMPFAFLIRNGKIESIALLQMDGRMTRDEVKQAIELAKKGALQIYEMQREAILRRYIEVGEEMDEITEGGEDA
T1 sequence 2: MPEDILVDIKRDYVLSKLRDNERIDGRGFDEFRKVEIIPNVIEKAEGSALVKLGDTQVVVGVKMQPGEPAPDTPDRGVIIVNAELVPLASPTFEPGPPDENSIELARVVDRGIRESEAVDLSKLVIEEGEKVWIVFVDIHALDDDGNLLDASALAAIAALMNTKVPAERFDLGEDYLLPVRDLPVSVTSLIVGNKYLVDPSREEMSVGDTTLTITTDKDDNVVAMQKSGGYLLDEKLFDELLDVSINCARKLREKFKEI
T1 sequence 3: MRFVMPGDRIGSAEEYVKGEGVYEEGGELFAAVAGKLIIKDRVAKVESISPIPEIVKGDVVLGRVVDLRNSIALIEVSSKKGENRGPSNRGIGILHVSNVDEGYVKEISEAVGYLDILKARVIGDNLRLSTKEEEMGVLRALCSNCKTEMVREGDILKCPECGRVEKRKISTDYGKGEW

T2: Rrp41 (archaeal exosome subunit);Rrp42 (archaeal exosome subunit);Csl4 (exosome cap) (Archaeoglobus fulgidus (printed …, UniProt O29757;O29756;O30033 1-258;1-259;1-179, ||))
T2 sequence 1: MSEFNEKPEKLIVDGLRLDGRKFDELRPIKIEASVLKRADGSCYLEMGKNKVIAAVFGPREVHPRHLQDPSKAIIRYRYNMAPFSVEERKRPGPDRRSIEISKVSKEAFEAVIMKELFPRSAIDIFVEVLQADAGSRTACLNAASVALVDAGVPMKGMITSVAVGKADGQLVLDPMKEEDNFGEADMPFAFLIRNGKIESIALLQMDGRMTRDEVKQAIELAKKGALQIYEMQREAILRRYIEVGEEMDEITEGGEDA
T2 sequence 2: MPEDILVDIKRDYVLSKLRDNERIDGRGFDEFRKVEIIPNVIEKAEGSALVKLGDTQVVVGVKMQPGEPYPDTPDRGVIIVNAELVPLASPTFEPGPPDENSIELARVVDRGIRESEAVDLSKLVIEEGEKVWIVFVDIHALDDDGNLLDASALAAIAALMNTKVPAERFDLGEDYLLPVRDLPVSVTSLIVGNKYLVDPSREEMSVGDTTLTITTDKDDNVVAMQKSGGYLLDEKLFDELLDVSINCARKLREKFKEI
T2 sequence 3: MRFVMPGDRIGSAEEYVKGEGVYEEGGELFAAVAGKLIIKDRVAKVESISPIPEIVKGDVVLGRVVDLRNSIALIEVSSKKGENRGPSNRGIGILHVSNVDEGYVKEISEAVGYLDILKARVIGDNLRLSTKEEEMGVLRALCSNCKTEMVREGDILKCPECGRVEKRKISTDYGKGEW

T3: Archaeoglobus fulgidus exosome subunit Rrp42 (Archaeoglobus fulgidus, UniProt O29756 1-259)
T3 sequence: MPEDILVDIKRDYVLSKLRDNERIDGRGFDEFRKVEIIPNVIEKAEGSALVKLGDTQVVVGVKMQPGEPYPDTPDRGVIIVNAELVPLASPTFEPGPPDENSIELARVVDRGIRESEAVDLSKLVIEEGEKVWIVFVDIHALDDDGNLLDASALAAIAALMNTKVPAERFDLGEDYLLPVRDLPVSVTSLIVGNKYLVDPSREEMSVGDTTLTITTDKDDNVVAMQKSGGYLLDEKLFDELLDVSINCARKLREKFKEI

T4: Archaeoglobus fulgidus exosome subunit Rrp42 Y70A (Archaeoglobus fulgidus, UniProt O29756 1-259, Y70A)
T4 sequence: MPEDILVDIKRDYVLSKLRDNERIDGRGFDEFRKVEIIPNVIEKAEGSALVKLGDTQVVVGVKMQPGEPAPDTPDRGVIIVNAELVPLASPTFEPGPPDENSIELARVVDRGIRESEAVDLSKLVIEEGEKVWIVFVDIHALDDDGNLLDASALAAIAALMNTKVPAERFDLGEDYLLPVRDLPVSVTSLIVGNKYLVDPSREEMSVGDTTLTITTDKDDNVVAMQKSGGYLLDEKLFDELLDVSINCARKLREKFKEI

B1: 6-mer RNA for crystallization (ssRNA)
RNA: CCCCUC
B2: Archaeoglobus fulgidus exosome cap subunit Csl4 (natural protein)
chain: MRFVMPGDRIGSAEEYVKGEGVYEEGGELFAAVAGKLIIKDRVAKVESISPIPEIVKGDVVLGRVVDLRNSIALIEVSSKKGENRGPSNRGIGILHVSNVDEGYVKEISEAVGYLDILKARVIGDNLRLSTKEEEMGVLRALCSNCKTEMVREGDILKCPECGRVEKRKISTDYGKGEW
B3: Archaeoglobus fulgidus exosome cap subunit Rrp4 (natural protein, UniProt O29758 1-223, looked up)
chain: MRKIVLPGDLLSTNPRAAGYGTYVEGGKVYAKIIGLFDQTETHVRVIPLKGRYTPSVGDVVIGIIREVAANGWAVDIYSPYQAFLPVSENPEMKPNKKPNEVLDIGDAIIAKVLNIDPKMKVTLTMKDRICRPIRFGRIVAINPARVPRVIGKKGSMIKLLKSELDVQIVVGQNGLIWVNGDRRKVSIAEEAIYLIEQEAHTEGLTDRVAEFIKRRKADVGIQ
B4: Archaeoglobus fulgidus exosome subunit Rrp41 (natural protein)
chain: MSEFNEKPEKLIVDGLRLDGRKFDELRPIKIEASVLKRADGSCYLEMGKNKVIAAVFGPREVHPRHLQDPSKAIIRYRYNMAPFSVEERKRPGPDRRSIEISKVSKEAFEAVIMKELFPRSAIDIFVEVLQADAGSRTACLNAASVALVDAGVPMKGMITSVAVGKADGQLVLDPMKEEDNFGEADMPFAFLIRNGKIESIALLQMDGRMTRDEVKQAIELAKKGALQIYEMQREAILRRYIEVGEEMDEITEGGEDA
B5: Archaeoglobus fulgidus exosome subunit Rrp41 D180A (natural protein)
chain: MSEFNEKPEKLIVDGLRLDGRKFDELRPIKIEASVLKRADGSCYLEMGKNKVIAAVFGPREVHPRHLQDPSKAIIRYRYNMAPFSVEERKRPGPDRRSIEISKVSKEAFEAVIMKELFPRSAIDIFVEVLQADAGSRTACLNAASVALVDAGVPMKGMITSVAVGKADGQLVLDPMKEEANFGEADMPFAFLIRNGKIESIALLQMDGRMTRDEVKQAIELAKKGALQIYEMQREAILRRYIEVGEEMDEITEGGEDA

Experiments:
[1] = biological target: T1, Rrp41 (archaeal exosome subunit);Rrp42 …; assay: X-ray crystallography
[2] = biological target: T2, Rrp41 (archaeal exosome subunit);Rrp42 …; assay: X-ray crystallography
[3] = biological target: B4; assay: crystal structure
[4] = biological target: T3, Archaeoglobus fulgidus exosome subunit …; assay: crystal structure
[5] = biological target: T4, Archaeoglobus fulgidus exosome subunit …; assay: crystal structure
[6] = biological target: T3, Archaeoglobus fulgidus exosome subunit …; assay: SAXS
[7] = biological target: B5; assay: SAXS

| Binder | binding result [4] | binding result [5] | binding result [6] | other results |
| --- | --- | --- | --- | --- |
| B1 |  |  |  | binding result [1]: binds; binding result [2]: binds |
| B2 | binds | binds |  | binding result [3]: binds |
| B3 |  |  | binds | binding result [7]: binds |
| B4 | binds | binds |  |  |
| B5 |  |  | binds |  |
